The assay deals with Gal4 (BD)-human NP: nucleoprotein of the contemporary human IAV H3N2 strain A/Ca/07/04 (influenza A virus H3N2, strain A/Ca/07/04 (human)). As to the kind of experiment: two-hybrid.

Regarding “ATPase, Na+/K+ transporting, beta 1 polypeptide (ATP1B1) (domain or fragment)”, the β-Gal activity was found to be 3.4 Miller units.
Regarding “Acyl-CoA thioesterase 13 (ACOT13) (from UniProt Q9NPJ3 1-140) (natural protein)”, the β-Gal activity was 6.9 Miller units.
In the case of “Cytoskeleton associated protein 5 (CKAP5) (domain or fragment)” it was 70.1 Miller units; in that of “FLJ30306 (…: Homo sapiens uncharacterized LOC101059922, mRNA) (natural protein)”, 1.9 Miller units.
Substance “Myb/SANT-like DNA-binding domain containing 3 (MSANTD3) (domain or fragment)” gave a β-Gal activity of 13.9 Miller units.
“Potassium channel tetramerisation domain containing 9 (KCTD9) (domain or fragment)” came in with a β-Gal activity of 5 Miller units.
As to “Proteasome (prosome, macropain) activator subunit 2 (PA28B) (from UniProt Q9UL46 1-239) (natural protein)”, the β-Gal activity is 6.7 Miller units.
The substance “Solute carrier family 30 (zinc transporter), member 9 (SLC30A9) (domain or fragment)” registered a β-Gal activity of 82.9 Miller units.
Substance “Transformer 2 beta homolog (Drosophila) (TRA2B) (from UniProt P62995 1-288) (natural protein)” returned a β-Gal activity of 1.9 Miller units.
As for “phosphoribosylaminoimidazole carboxylase, phosphoribosylaminoimidazole succinocarboxamide synthetase (PAICS) (from UniProt P22234 1-425) (natural protein)”, the β-Gal activity worked out at 2.2 Miller units.

The values are drawn from paper PMC4297426.
